From the supplement of paper PMC10567573

B1: AUP1 (parent)
chain: FCASTRLPPTPLLLFPEEEATNGR

Variants of: B1
Assay: protein stability index of a GFP-peptide fusion (GPS, HEK-293T) (PSI 1-6); higher = more stable
Details: c terminus: a fixed tail appended
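Also: lentivirally expressed fusions sorted by FACS into six bins by GFP to DsRed ratio, PSI derived from sequencing read proportions per bin multiplied by bin number.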

Variant	protein stability index
FDASTRLPPTPLLLFPEEEATNGR	4.81
FIASTRLPPTPLLLFPEEEATNGR	2.62
FMASTRLPPTPLLLFPEEEATNGR	3.73
FPASTRLPPTPLLLFPEEEATNGR	3.92
FKASTRLPPTPLLLFPEEEATNGR	4.06
FHASTRLPPTPLLLFPEEEATNGR	2.17
FTASTRLPPTPLLLFPEEEATNGR	3.42
FSASTRLPPTPLLLFPEEEATNGR	3.8
FWASTRLPPTPLLLFPEEEATNGR	2.76
FCASTRLPPTPLELFPEEEATNGR	3.86
FCASTRLPPTPLYLFPEEEATNGR	2.62
FCASTRLPPTPLQLFPEEEATNGR	3.32
FCASTRLPPTPLKLFPEEEATNGR	2.74
FCASTRLPPTPLHLFPEEEATNGR	3.4
FCASTRLPPTPLWLFPEEEATNGR	1.59
FCASTRLPPTPLDLFPEEEATNGR	3.94
FCASTRLPPTPLFLFPEEEATNGR	2.18
FCASTRLPPTPLVLFPEEEATNGR	3.25
FCASTRLPPTPLSLFPEEEATNGR	3.54
FCASTRLPPTPLRLFPEEEATNGR	3.45
FCASTRLPPTPLLLFDEEEATNGR	3.05
FCASTRLPPTPLLLFQEEEATNGR	2.6
FCASTRLPPTPLLLFHEEEATNGR	2.61
FCASTRLPPTPLLLFCEEEATNGR	2.08

Variant	protein stability index
FCASTRLPPTPLLLFLEEEATNGR	1.57
FCASTRLPPTPLLLFYEEEATNGR	2.03
FCASTRLPPTPLLLFGEEEATNGR	2.69
FCASTRLPPTPLLLFKEEEATNGR	2.26
FCASTRLPPTPLLLFPWEEATNGR	1.7
FCASTRLPPTPLLLFPIEEATNGR	1.93
FCASTRLPPTPLLLFPNEEATNGR	2.55
FCASTRLPPTPLLLFPTEEATNGR	1.62
FCASTRLPPTPLLLFPFEEATNGR	1.83
FCASTRLPPTPLLLFPCEEATNGR	1.52
FCASTRLPPTPLLLFPDEEATNGR	2.7
FCASTRLPPFPLLLFPEEEATNGR	1.32
FCASTRLPPGPLLLFPEEEATNGR	2.53
FCASTRLPPRPLLLFPEEEATNGR	2.87
FCASTRLPPKPLLLFPEEEATNGR	3.04
FCASTRLPPWPLLLFPEEEATNGR	2.33
FCASTRLPPTPLLLFPEEEATYGR	2.82
FCASTRLPPTPLLLFPEEEATHGR	2.95
FCASTRLPPTPLLLFPEEEATVGR	2.16
FCASTRLPPTPLLLFPEEEATRGR	2.73
FCASTRLPPTPLLLFPEEEATCGR	2.32
FCASTRLPPTPLLLFPEEEATGGR	2.16
FCASTRLPPTPLLLFPEEEATKGR	2.75
FCASTRLPPTPLLLFPEEEATAGR	2.87

Variant	protein stability index
FCASTRLPPTPLLLFPEEEATDGR	3.1
FCASTRLPPTPLLLFPEEEATSGR	2.5
FCASTRLPPTPLLLFPEEPATNGR	2.38
FCASTRLPPTPLLLFPEESATNGR	2.31
FCASTRLPPTPLLLFPEEAATNGR	2.74
FCASTRLPPTPLLLFPEEYATNGR	2.69
FCASTRLPPTPLLLFPEEVATNGR	2.33
FCASTRLPPTPLLLFPEELATNGR	2.19
FCASTRLPPTPLLLFPEEIATNGR	2.02
FCASTRLPPTPLLLFPEECATNGR	2.04
FCASTRLKPTPLLLFPEEEATNGR	2.09
FCASTRLMPTPLLLFPEEEATNGR	2.57
FCASTRLNPTPLLLFPEEEATNGR	2.66
FCASTRLCPTPLLLFPEEEATNGR	2.08
FCASTRLTPTPLLLFPEEEATNGR	2.94
FCASTRLIPTPLLLFPEEEATNGR	2.3
FCASTRLVPTPLLLFPEEEATNGR	2.41
FCASTRLSPTPLLLFPEEEATNGR	2.84
FCASTRLAPTPLLLFPEEEATNGR	2.48
FCASTRLFPTPLLLFPEEEATNGR	2.43
FCASTRLQPTPLLLFPEEEATNGR	3.19
FCASTRLHPTPLLLFPEEEATNGR	2.33
FCASTRLGPTPLLLFPEEEATNGR	2.66
FCASTRLPPTCLLLFPEEEATNGR	2.57

Variant	protein stability index
FCASTRLPPTWLLLFPEEEATNGR	2.14
FCASTRLPPTQLLLFPEEEATNGR	2.58
FCASTRLPPTHLLLFPEEEATNGR	2.33
FCASTRLPPTRLLLFPEEEATNGR	2.06
FCASTRLPPTMLLLFPEEEATNGR	2.6
FCASTRLPPTLLLLFPEEEATNGR	1.63
FCASWRLPPTPLLLFPEEEATNGR	2.49
FCASGRLPPTPLLLFPEEEATNGR	2.7
FCASYRLPPTPLLLFPEEEATNGR	2.27
FCASCRLPPTPLLLFPEEEATNGR	1.86
FCASFRLPPTPLLLFPEEEATNGR	1.81
FCASKRLPPTPLLLFPEEEATNGR	2.64
FCALTRLPPTPLLLFPEEEATNGR	2.85
FCATTRLPPTPLLLFPEEEATNGR	2.76
FCAGTRLPPTPLLLFPEEEATNGR	2.85
FCAETRLPPTPLLLFPEEEATNGR	3.52
FCAATRLPPTPLLLFPEEEATNGR	2.8
FCANTRLPPTPLLLFPEEEATNGR	2.94
FCAQTRLPPTPLLLFPEEEATNGR	3.36
FCACTRLPPTPLLLFPEEEATNGR	2.54
FCASTRLPPTPLLLFPEEEAQNGR	2.46
FCASTRLPPTPLLLFPEEEAFNGR	2.28
